Laboratory results taken from the Immune Epitope Database (IEDB).

Key:
HLA-B*07:02 = assay: IEDB peptide-MHC binding, purified MHC/competitive/radioactivity; filed as Kd, often an IC50 or EC50 that approximates it; ≥ and ≤ were set here for values at or beyond the usual limits of such assays
HLA-B*08:01 = assay: as above
HLA-B*40:01 = assay: as above
HLA-B*15:01 [1] = assay: as above
HLA-B*15:01 [2] = assay: IEDB peptide-MHC binding, purified MHC/competitive/fluorescence; filed as Kd, often an IC50 or EC50 that approximates it; ≥ and ≤ were set here for values at or beyond the usual limits of such assays
HLA-B*57:01 = assay: IEDB peptide-MHC binding, purified MHC/direct/fluorescence; filed as Kd, often an IC50 or EC50 that approximates it; ≥ and ≤ were set here for values at or beyond the usual limits of such assays; settings: source organism: Giardia lamblia ATCC 50803
HLA-B*58:01 = assay: as above; settings: source organism: Giardia lamblia ATCC 50803
HLA-A*02:01 [3] = assay: IEDB peptide-MHC binding, purified MHC/competitive/radioactivity; filed as Kd, often an IC50 or EC50 that approximates it; ≥ and ≤ were set here for values at or beyond the usual limits of such assays
HLA-A*02:02 = assay: as above
HLA-A*02:03 = assay: as above
HLA-A*02:06 = assay: as above
HLA-A*68:02 = assay: as above
HLA-B*35:01 = assay: as above
HLA-B*51:01 = assay: as above
HLA-B*53:01 = assay: as above
HLA-A*02:01 [4] = assay: IEDB peptide-MHC binding, purified MHC/competitive/fluorescence; filed as Kd, often an IC50 or EC50 that approximates it; ≥ and ≤ were set here for values at or beyond the usual limits of such assays
HLA-A*26:01 = assay: IEDB peptide-MHC binding, purified MHC/competitive/radioactivity; filed as Kd, often an IC50 or EC50 that approximates it; ≥ and ≤ were set here for values at or beyond the usual limits of such assays; settings: source organism: Dengue virus 1 Brazil/97-11/1997
HLA-A*01:01 = assay: as above; settings: source organism: Dengue virus 3 Martinique/1243/1999
HLA-A*03:01 = assay: IEDB peptide-MHC binding, purified MHC/direct/fluorescence; filed as Kd, often an IC50 or EC50 that approximates it; ≥ and ≤ were set here for values at or beyond the usual limits of such assays; settings: source organism: SARS-CoV1
HLA-A*69:01 = assay: as above; settings: source organism: SARS-CoV1
HLA-B*15:01 [5] = assay: as above; settings: source organism: SARS-CoV1
HLA-A*23:01 = assay: IEDB peptide-MHC binding, purified MHC/competitive/radioactivity; filed as Kd, often an IC50 or EC50 that approximates it; ≥ and ≤ were set here for values at or beyond the usual limits of such assays; settings: source organism: Dengue virus 3 Martinique/1243/1999
[6] = source organism: Dengue virus 2 Jamaica/1409/1983
[7] = source organism: Vaccinia virus WR
[8] = source organism: Dengue virus 4 Philippines/H241/1956
[9] = source organism: Vaccinia virus Copenhagen
[10] = source organism: Dengue virus 1 Brazil/97-11/1997
[11] = source organism: Bacillus cereus G9241
[12] = source organism: Dengue virus 3 Martinique/1243/1999
[13] = source organism: SARS coronavirus Tor2

RVIDPRRCM
Kd (HLA-B*07:02; [6]): 1150 nM

SPYVKFIYF
Kd (HLA-B*08:01; [7]): 1780 nM

LEYTIVITPH
Kd (HLA-B*40:01; [6]): 2470 nM

LAGPMVAGGL
Kd (HLA-B*08:01; [8]): 7750 nM

LIIICCVSG
Kd (HLA-B*15:01 [1]; [9]): 403 nM

RRKRSVTMLL
Kd (HLA-B*08:01; [10]): 3650 nM

TQWCSRSVY
Kd (HLA-B*15:01 [2]; source organism: Escherichia coli 101-1): 84.3 nM

ALRFFLQRL
Kd (HLA-B*08:01; [7]): 1990 nM

RTRPPPCPH
Kd (HLA-B*57:01): 935 nM
Kd (HLA-B*58:01): ≥ 20000 nM

AETQHGTVLV
Kd (HLA-B*40:01; [10]): 98.4 nM

FQTLMHSPF
Kd (HLA-B*15:01 [2]; [11]): 23.1 nM

RTKAIGLNF
Kd (HLA-B*15:01 [2]; [11]): 84.7 nM

YVNAILYQI
Kd (HLA-A*02:01 [3]; [7]): 1430 nM
Kd (HLA-A*02:02; [7]): 2050 nM
Kd (HLA-A*02:03; [7]): 9940 nM
Kd (HLA-A*02:06; [7]): 1980 nM
Kd (HLA-A*68:02; [7]): 1860 nM

LEFEALGFLN
Kd (HLA-B*40:01; source organism: Murray valley encephalitis virus (strain MVE-1-51)): 144 nM

VIEEVMNIV
Kd (HLA-A*02:01 [3]; source organism: Lassa virus GA391): 6250 nM

LLKFRVESC
Kd (HLA-B*08:01; [9]): 74.4 nM

LPVCQSSSM
Kd (HLA-B*07:02; [12]): 10.5 nM
Kd (HLA-B*35:01; [12]): 12.6 nM
Kd (HLA-B*51:01; [12]): 2740 nM
Kd (HLA-B*53:01; [12]): 1010 nM

LLQEENRQKL
Kd (HLA-A*68:02; source organism: Homo sapiens): ≥ 60000 nM

FIAFLRFLAI
Kd (HLA-A*02:06; [10]): 14.9 nM
Kd (HLA-A*68:02; [10]): 417 nM
Kd (HLA-B*53:01; [10]): 1320 nM

FQNWGIESI
Kd (HLA-A*02:01 [4]; source organism: Influenza A virus (A/Wilson-Smith/1933(H1N1))): 2.3 nM

AGRRSVSGDL
Kd (HLA-B*08:01; [10]): 9260 nM

FCSHHFHEL
Kd (HLA-B*08:01; [12]): 135 nM

LPQHLTLRAQ
Kd (HLA-B*07:02; [10]): 265 nM
Kd (HLA-B*35:01; [10]): 520 nM
Kd (HLA-B*51:01; [10]): ≥ 31700 nM

TPQPKPGTRM
Kd (HLA-B*07:02; [8]): 39.9 nM
Kd (HLA-B*35:01; [8]): 177 nM

MECSPRTGL
Kd (HLA-B*40:01; [6]): 153 nM

ANISTILYF
Kd (HLA-B*15:01 [1]; [7]): 128 nM

ETQHGTTVV
Kd (HLA-A*68:02; [8]): 8.6 nM

MLVTPSMAM
Kd (HLA-A*26:01): 6420 nM
Kd (HLA-B*15:01 [1]; [10]): 3.06 nM
Kd (HLA-B*35:01; [10]): 442 nM

MTTEDMLTV
Kd (HLA-A*01:01): 7380 nM
Kd (HLA-A*02:06; [12]): 2.85 nM
Kd (HLA-A*68:02; [12]): 19.1 nM

MPVTVASAAQ
Kd (HLA-B*07:02; [10]): 446 nM
Kd (HLA-B*35:01; [10]): 391 nM
Kd (HLA-B*51:01; [10]): ≥ 69600 nM

SAYTALFSGV
Kd (HLA-A*02:03; [12]): 7.14 nM
Kd (HLA-A*02:06; [12]): 1.16 nM
Kd (HLA-A*68:02; [12]): 9.19 nM

AINVEKIEL
Kd (HLA-A*02:01 [4]; [7]): ≥ 20000 nM

LIIMDEAHF
Kd (HLA-B*15:01 [1]; [6]): 19 nM

ETWNRQDLLV
Kd (HLA-A*68:02; [10]): 17 nM

LLALQQLEV
Kd (HLA-A*03:01): 2020 nM
Kd (HLA-A*69:01): 242 nM
Kd (HLA-B*15:01 [5]): 3790 nM
Kd (HLA-A*02:01 [4]; source organism: SARS-CoV1): 2.7 nM
Kd (HLA-A*02:02; [13]): 0.138 nM
Kd (HLA-A*02:03; [13]): 0.295 nM
Kd (HLA-A*02:06; [13]): 41.9 nM

LINNGKCTF
Kd (HLA-B*15:01 [1]; [7]): 61.9 nM

SEIKRGLFF
Kd (HLA-B*15:01 [1]; [7]): 323 nM

LSEKWFTHA
Kd (HLA-B*15:01 [1]; [7]): 19100 nM

FLETDAGRV
Kd (HLA-A*02:01 [3]; source organism: Variola virus): 100 nM

IINKRKKTSL
Kd (HLA-B*08:01; [12]): 83.9 nM

MTATPPGTA
Kd (HLA-A*68:02; [12]): 35.2 nM

WLGARYLEF
Kd (HLA-A*23:01): 82.7 nM
Kd (HLA-B*08:01; [12]): 2.26 nM
Kd (HLA-B*15:01 [1]; [12]): 158 nM

RLNALGKSEF
Kd (HLA-B*15:01 [1]; [6]): 17.2 nM

NMDPLNDNI
Kd (HLA-A*02:01 [3]; source organism: Homo sapiens): 1930 nM
Kd (HLA-A*68:02; source organism: Homo sapiens): ≥ 85700 nM
